Test results taken from patent US20130012436A1 (Bristol-Myers Squibb, published 2013).
Where a chain is given by its changes, count along the chain named.

T1: human IL-23 (human, UniProt Q9NPF7 20-189; P29460 23-328)
T1 sequence (looked up) 1: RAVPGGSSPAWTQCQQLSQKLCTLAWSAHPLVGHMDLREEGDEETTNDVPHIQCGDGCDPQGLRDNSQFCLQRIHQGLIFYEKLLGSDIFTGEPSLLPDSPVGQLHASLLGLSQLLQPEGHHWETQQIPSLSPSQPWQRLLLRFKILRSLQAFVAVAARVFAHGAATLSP
T1 sequence (looked up) 2: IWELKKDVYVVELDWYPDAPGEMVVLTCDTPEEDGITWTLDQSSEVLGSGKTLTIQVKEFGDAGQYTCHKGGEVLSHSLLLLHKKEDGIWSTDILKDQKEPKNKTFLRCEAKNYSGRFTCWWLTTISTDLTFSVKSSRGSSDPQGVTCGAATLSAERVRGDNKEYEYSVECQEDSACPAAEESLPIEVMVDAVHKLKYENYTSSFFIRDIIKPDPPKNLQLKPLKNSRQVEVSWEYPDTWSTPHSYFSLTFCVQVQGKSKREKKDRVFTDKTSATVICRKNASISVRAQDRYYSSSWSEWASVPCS

B1: 1434A08 (designed binder)
chain: MGVSDVPRDLEVVAATPTSLLISWGHYPMHVRYYRITYGETGGNSPVQEFTVPHRTHTATISGLKPGVDYTITVYAVTYYNEADYSQIPISINYRTEIDKPSQHHHHHH
B2: 1572H08 (designed binder)
chain: B1 chain with M29L, H54S, T56K, H57Y
notes: captured by anti-His mAb
B3: 1437A09 (designed binder)
chain: B1 chain with H54S, R55K, T56Q
notes: captured by anti-His mAb
B4: 1437G04 (designed binder)
chain: B1 chain with M29L, H54Y, R55Y, T56H, H57Y
notes: captured by anti-His mAb
B5: 1486B05 (designed binder)
chain: B1 chain with H54S, T56I, H57Y
notes: captured by anti-His mAb
B6: 1486C04 (designed binder)
chain: B1 chain with H54P, R55H, T56R, H57Y
notes: captured by anti-His mAb
B7: 1486D04 (designed binder)
chain: B1 chain with M29L, V31I, H54R, R55S
notes: captured by anti-His mAb
B8: 1486D05 (designed binder)
chain: B1 chain with M29L, R55Q, T56R, H57Y
notes: captured by anti-His mAb
B9: 1486G03 (designed binder)
chain: B1 chain with H54S, T56Y, H57Y
notes: captured by anti-His mAb
B10: 1487C03 (designed binder)
chain: B1 chain with M29L, V31I, H54K, R55Q, T56V, H57Y
notes: captured by anti-His mAb
B11: 1487D09 (designed binder)
chain: B1 chain with V31I, H54R, R55S, T56R
notes: captured by anti-His mAb
B12: 1487G03 (designed binder)
chain: B1 chain with M29L, H54A, R55H, T56R, H57Y
notes: captured by anti-His mAb
B13: 1487H04 (designed binder)
chain: B1 chain with H54A, T56Q, H57Y, N81Q, A83Y, D84E, S86R, Q87Y
notes: captured by anti-His mAb
B14: 1490 E02 (designed binder)
chain: B1 chain with H54R, R55T, T56Q, H57Y
notes: captured by anti-His mAb
B15: 1490A07 (designed binder)
chain: MGVSDVPRDLEVVAATPTSLLISWGHYPLHIRYYRITYGETGGNSPVQEFTVPHAKYTATISGLKPGVDYTITVYAVTYYAQENYKEIPISINYRTEIDKPSQHHHHHH
notes: captured by anti-His mAb
B16: 1490C07 (designed binder)
chain: B1 chain with M29L, H54S, R55N, T56R, H57Y
notes: captured by anti-His mAb
B17: 1490G02 (designed binder)
chain: B1 chain with H54P, T56Y, N81M, A83E, D84K, S86A, Q87V
notes: captured by anti-His mAb
B18: 1490H06 (designed binder)
chain: B1 chain with M29L, V31I, H54R, R55Q, T56K, H57Y
notes: captured by anti-His mAb
B19: 1490H08 (designed binder)
chain: B1 chain with M29L, V31I, H54N, R55T, T56S
notes: captured by anti-His mAb
B20: 1491A05 (designed binder)
chain: B15 chain with I31V, H54S, A55Q, K56V
notes: captured by anti-His mAb
B21: 1550 E03 (designed binder)
chain: B15 chain with H54R, A55M, K56R, Y57H, A81S, Q82E, N84L, E87Y
notes: captured by anti-His mAb
B22: 1550A07 (designed binder)
chain: B15 chain with L29M, I31V, H54V, A55P, K56R
notes: captured by anti-His mAb
B23: 1550C05 (designed binder)
chain: B1 chain with H54P, T56R, H57Y
notes: captured by anti-His mAb
B24: 1550H05 (designed binder)
chain: B1 chain with M29L, H54R, R55Q, T56I, H57Y
notes: captured by anti-His mAb
B25: 1571F10 (designed binder)
chain: B15 chain with H54S, A55R, K56Y, Y57H, A81E, E83V, N84E, K86R
notes: captured by anti-His mAb
B26: 1572B10 (designed binder)
chain: B1 chain with H54V, R55P, T56R
notes: captured by anti-His mAb
B27: 1572D04 (designed binder)
chain: B1 chain with H54P, T56R, H57Y, N81E, E82Q, A83P, D84I, S86A, Q87T
notes: captured by anti-His mAb
B28: 1438E05 (designed binder)
chain: B1 chain with H54S, R55N, T56V
B29: 1438D01 (designed binder)
chain: B1 chain with H54N, T56A
B30: 1438B02 (designed binder)
chain: B1 chain with H54R, R55K, H57Y
B31: 1438A09 (designed binder)
chain: B1 chain with H54R, R55S, T56R, H57Y

Experiments:
human IL-23 [1] = molecular target: T1, human IL-23; assay: cell-based or functional assay
human IL-23 [2] = molecular target: T1, human IL-23; assay: SPR, Adnectin captured by anti-His mAb, IL-23 injected
Method: All surface plasmon experiments were conducted in HBS-EP (10 mM Hepes 150 mM NaCl 3 mM EDTA 0.05% Surfactant P20) at 25° C. IL-23 was injected over anti-His mAb captured Adnectins for 2 minutes followed by a 10 minute dissociation phase. Evaluation of the binding specificity was completed using Biacore T100 evaluation software. Additional detailed methods are described in Example 4.

| Binder | Kit 225 pSTAT3 IC50 (nM) (human IL-23 [1]) | kon (human IL-23 [2]) | Kd (human IL-23 [2]) | koff (human IL-23 [2]) |
| --- | --- | --- | --- | --- |
| B1 | 4.9 nM | – | – | – |
| B2 | 2.8 nM | 57300 M⁻¹ s⁻¹ | – | – |
| B3 | 20.2 nM | 80600 M⁻¹ s⁻¹ | 5.7 nM | 0.00046 s⁻¹ |
| B4 | 3.3 nM | 134000 M⁻¹ s⁻¹ | 3.3 nM | 0.000446 s⁻¹ |
| B5 | 4 nM | 134000 M⁻¹ s⁻¹ | 2.8 nM | 0.000381 s⁻¹ |
| B6 | 31.9 nM | 112000 M⁻¹ s⁻¹ | 3.4 nM | 0.000379 s⁻¹ |
| B7 | 2 nM | 151000 M⁻¹ s⁻¹ | 2.3 nM | 0.000352 s⁻¹ |
| B8 | 4 nM | 120000 M⁻¹ s⁻¹ | 2.9 nM | 0.000344 s⁻¹ |
| B9 | 3 nM | 86200 M⁻¹ s⁻¹ | 4.9 nM | 0.000425 s⁻¹ |
| B10 | 3.7 nM | 161000 M⁻¹ s⁻¹ | 2.4 nM | 0.000382 s⁻¹ |
| B11 | 2 nM | 150000 M⁻¹ s⁻¹ | 1.7 nM | 0.00025 s⁻¹ |
| B12 | 3 nM | 103000 M⁻¹ s⁻¹ | 3.1 nM | 0.000316 s⁻¹ |
| B13 | 2 nM | 59600 M⁻¹ s⁻¹ | – | – |
| B14 | – | 97300 M⁻¹ s⁻¹ | 4.8 nM | 0.000465 s⁻¹ |
| B15 | 0.6 nM | 163000 M⁻¹ s⁻¹ | – | – |
| B16 | 5.6 nM | 95600 M⁻¹ s⁻¹ | 4.5 nM | 0.000426 s⁻¹ |

| Binder | Kit 225 pSTAT3 IC50 (nM) (human IL-23 [1]) | kon (human IL-23 [2]) | Kd (human IL-23 [2]) | koff (human IL-23 [2]) |
| --- | --- | --- | --- | --- |
| B17 | 0.4 nM | 197000 M⁻¹ s⁻¹ | 1.7 nM | 0.000332 s⁻¹ |
| B18 | 2.3 nM | 93500 M⁻¹ s⁻¹ | – | – |
| B19 | – | 167000 M⁻¹ s⁻¹ | 3.5 nM | 0.000587 s⁻¹ |
| B20 | 0.3 nM | 198000 M⁻¹ s⁻¹ | 2.1 nM | 0.000408 s⁻¹ |
| B21 | 5.3 nM | 99500 M⁻¹ s⁻¹ | 1.9 nM | 0.000186 s⁻¹ |
| B22 | 1 nM | 117000 M⁻¹ s⁻¹ | 1.1 nM | 0.000133 s⁻¹ |
| B23 | 16.8 nM | 65900 M⁻¹ s⁻¹ | 2.1 nM | 0.000135 s⁻¹ |
| B24 | 1.5 nM | 65200 M⁻¹ s⁻¹ | 3.3 nM | 0.000212 s⁻¹ |
| B25 | 0.1 nM | 268000 M⁻¹ s⁻¹ | – | – |
| B26 | 0.8 nM | 65300 M⁻¹ s⁻¹ | – | – |
| B27 | 4 nM | 103000 M⁻¹ s⁻¹ | 2.9 nM | 0.000294 s⁻¹ |
| B28 | 39.6 nM | – | – | – |
| B29 | 11.4 nM | – | – | – |
| B30 | 8.6 nM | – | – | – |
| B31 | 10.8 nM | – | – | – |
